Test results from the nanobody polyreactivity screen of Harvey et al. (2022).

Assay: yeast display, Sf9 membrane polyspecificity reagent, FACS + sequencing; frameworks hold sequencing errors
Outline: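 A nanobody's polyreactivity label depends on the gate it was sorted from. Yeast display cells were stained with 10% biotinylated, detergent-solubilized Sf9 membrane reagent for 1 hour at 4 °C, enriched on streptavidin microbeads and sorted by FACS. The low and high (top ~1%) gates were set on anti-HA fluorescence for expression and streptavidin fluorescence for reagent binding.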

Sequence	polyreactivity (PSR sort gate)
QVQLVESGGGLVQAGGSLRLSCAASGITLYLNAMGWYRQAPGKERELVAAITASGGSTYADSVKGRFTISRDNAQNTVYLQMNSLKPEDTAVYYCAADVIYEYYFTFGVGYYEYDYWGQGTQVTVSS	low polyreactivity
QVHLVESGGGLVQAGGSLLLSCAASGGTFAAYAMGWYRQAPGKERELVAAIDSGGTTKYADSVKGRFTISRDNAKNTVYLQMSCLKPEDTAVYYCAAVYRITFGYHTSRAFDYWGQGTQVTVSS	low polyreactivity
QVQLVESGGGLVQAGGSLRLSCAASGSTFRYYSMGWYRQAPGKERELVAAITYRGGRTYYADSVKGRFTISRDNAKNTDYLQKNSLKPEDTAVYYCAAKSGRHSMDSSGQGTQVTVSS	low polyreactivity
QVQLVESGGGLVQAGASLRLSCAASGSIFGVNAMGWYRQAPGKERELVAAISVSGGRTYYADSVKGRFTISRDNAKNTVYLLMNSLKPEDTAVYYCAATTYIWPYDYWGQGTQVTVSS	low polyreactivity
QVQLVESGGGLVQAGGSLRLSCAASGRIFTAYAMGWYRQAPGKERELVASITTSGTTYYADSVKGRFTISRDNSKNTVYLQMNSLKPEDTAVYYCAADYYGYVQGGIQYGYYYLGQGTQVTVSS	low polyreactivity
QVQLVESGGCLVQAGGSLSLSCAASGRIFGAYAMGWYRQAPGTERELVAAISSGGSTYYADSVKGRFTISRDNAKNTVYLQMNSLKPEDTAVYYCAASSGNGYGYWGQGTQVTVSS	high polyreactivity
QVQLVESGGGLVQAGGSLRLSCAASGRTFDVYAMGWDRQAPGKERELVAASTSGGSTYYADSVKGRFTISRDNAKNTVYLQMNSLKPEDTAVYYCATDVDKSLYDYWGQGTQVTVSS	low polyreactivity
QVQLVESGGGLVQAGGSLRLSCAASGRIFERNAMGWYRQAPGKERELVAAITYNGGRTYYAVSVKGRFTISRDNAKNTVYLQINSQKPEDTAVYYYNAQSRVTRSSYRGSPRYDYWGQGTQVTVSS	high polyreactivity
QVQLVESGGGLVQAGGSLRLICAASGITLDGNAMGWYRQAPGKERELVAAITSGGGTNYADSVKGRFTISRDNAKNTVYLQMNSLKPEDTAVYYCAAEGYVGYYDYDYWGQGTQVTVSS	low polyreactivity
QVQLVESGGGLVQAGGSHRLSCSASGQTFVKNAMGWYRQAPGKERELVAAITVSGSRTYYADSVKGRFTISRDNAKNTVYLQMNSLKPEDTAVYYCAAKTADRFAPYYYWGQGTQVTVSS	high polyreactivity
QDQLVESGGGLVQAGGSLRLSCAASGRTFTYYTMGWYRQAPGKERELVAAITWSGGRTYYADSVKGRFTISRDYAKNTVYLQMNSLKPEDTAVYYCAKPPQGTYDYWGQGTQVNVSS	low polyreactivity
QVQLVESGGGLVQAGGSLRLSCAASGRTFLLYAMGWYRQAPGKERELVARITGRGGRTYYADSVKGRFTISRDNAKNTVYLQMNSLKPEDTAVYYCNKRYPLGTEYYYWGQGTQVTVSS	high polyreactivity
QVQLVESGGGLVQAGGSLRLSCAASGSIFAPYAMGWYRQAPGTERELVAAITWSGDSTYYADSVKGRFTISRDNAKNTVYLQMNSLKPEDTAVYYCATEEVYGQGNYWGQGTQVTVSS	low polyreactivity
QVQLVESGGGLVQAGGSLRLSCAASGSIFSANAMGWYRQAPGKERELVAAISSSGNTNYSDSVKWRFTISRDNAKNTFYLQMNSLKPEDTAVYYCAVELKQVTPGLGYITLDYWGQGTQVTVSS	low polyreactivity
QVQLVESGGGLVQAGGSLRLSCAASGSIFHHNAMGWYRQAPGKERELVAAISSRSGNTYYADSVKGRFTISRDNAKNTVYLQMNSLKPEDTAVYYCAKAFRGHYWGQGTQVTVSS	high polyreactivity
QVQLVESGGGLVQAGGSLRLSCAASGFTFNRYAMGWYRQAPGQERELVAAISRSGGSTSYADSVKGRFTISRDNAKKTVYLPMHSLKPEDTAVYYCAADRVWYLYYDYNYWGQGTQVTVSS	high polyreactivity
QVQLVESGGGLVQAGGSLRLSRAGCGRIFFVYAMRWYRQAPGKERELVAALSVSDVSTSYADSVKGRFTISRDNAKNTVFLQMNSLKPEDTAVYYCLAAFRFYASSRIAGEDYWGQGTQVTVSS	low polyreactivity
QLQLVETGGGIVQAAGSLRLSCAASGFTYNRYAKGWYRKAPGKERELVAAISRGGTTYADSVKGRFTISRDNAKNTVYLQMNSLKPEDTAVYYCNRLRYGYPQEFGYWGQGTQVTVSS	high polyreactivity
QVQLVESGGGLVQAGGSLRLSCAASGRIFGGNAMGWYRQAPGKERELVAAITTRGGSTYADSVKGRFTISRDKAKNTVYLQMNSLKPEDTAVYYCAVERSYHGGPRYLVRTYGYWGQGTQVTVSS	low polyreactivity
QVQLVESGGGLVQAGGSLRLSCAASGFIFGGNAMGWFRQAPGKERELVAAIRSGGSTYYADSVKGRFTISRDNAKNTVYLQMNSLKPEDTAVYYCAAELYDVYDLDYWGQGTQVTVSS	low polyreactivity
QVQLVESGGGLVQAGGSLRLSCAASGFTFRTYAMGWYRQAPGKERELVSAITGSGGRTYYADSVKGRFTISRDYAKNTVYLQMNSLKPEDTAVYYCAADYVVPWAFWTFRFDYWGQGTQVTVSS	low polyreactivity
QVHLVESGGGLVQAGGSLRLSCAASGSIFYGNAMGWDRQATGKERELVAGISWYGGSTYYADSVKGRFTISRDNAKNTVYLQMNSLKPEDTAVYYCATVADEPRSYSGYEEYDYWGQGTQVTVSS	low polyreactivity

Sequence	polyreactivity (PSR sort gate)
QVQLVESGGGLLQAGGSLRLTCAASGFTFSLNTMGWYRQAPAKEREFVAAINSGDSTYADSVKGRYTISRDNAKNTVYLQMNSLKPEDTAVYYCNADPDWWYPYNYWGQGTQVTVSS	low polyreactivity
QVQLVESGGGLVQEGGSLRLSCAASGSTFAYNAKGWYRQAPGKERELVARISSSGDITYDADSVKGRFTISRDNAKNTVYLQMNSLKPEDTAVYYCAKRYLTRYKGYYYWGQGTQVTVSS	high polyreactivity
QVQLVESGGGLVQAGGSLRLSCAASGITLSYYAMGWYGPAPGKERELVAAISSNGGRTYYADSVMGRFTISRDNAKNTVYLQMNSLKPEDTAVYYCAARVYDYPRFGYWGQGTQVTVSS	high polyreactivity
QVQLVESGGGLVQAGGSLRLSCADSGGTFYRYARGWYRQAPGKERELVAAISRRGGSTYYADSVKGRFTISRDNAKNTVYLQMNSLKPDDTAVYYCDKDVSDSRFDYWGQGTQVTVSS	high polyreactivity
QVQLVESGGGLVQAGGSLRLSCAASGRTFTSNAMGWYRQAPGKESELVAVITTSGDRTFYADSVKGRFTISRDNAKNTVYLQMNSLKPEDTAVYYCAADVRLTRGFDYWVQGTQVTVSS	high polyreactivity
QVQLVESGGGLVQAGGSLRLSCAASGFTFVGNAMGWYRQAPGKERELVAAITSGGSTYYADSVKGRFTISRDNAKNTVYLQMNSLKPEDTAVYYCATGGRGGRRYEYWGQGTQVTVSS	low polyreactivity
QVQLVESGGGVVQAGGSLRLSCAASGFTPGNVMGGYRQAPGKERELVAAISWTGDSTYYAASVKGRFTISRDNAKNTVYLQMNSLKPEDTAVYYCAADGVPGRALDYEYWGQGTQVTVSS	high polyreactivity
QVQLVESGRGLVQAGGSLRLSCAASGRTFRAYAMGWYRQAPGKERELVAAISSRGGSTYYADSVKGRFTISRDNAKNTVYFQMNSLKPEDTAVYYCNVDRYVRGLITFDYWGQGTQVTVSS	high polyreactivity
QVQLVESGGGIVQAGGSLRLSCAASGRIFAFNAMGWYRPAPGKERELVADITSSGVNTYYADSVKGRFTISRDNAINTVYLQMNSLKPEYTAVYYCAARSYLRWWVGMEYWGQGTQVTVSS	low polyreactivity
QVQLVESGGGLVQAGGSLRLSCAASGSILDGYVMGWYRQAPGKDRELVAAISTNSDRTYYADSVKGRFTISRDNAKNTVDLQMNSLKPEDTAVYYCNARKLRRAGFPYDYWGQGTQVTVSS	high polyreactivity
QVQLVESGGGIVQAGGSLRLSCAASGLIFYNYAMGWYRQAPGKERELVAAITSGGSTYYADSVKGRFTISRDNAKNTVYLQMNSLKPEDTAVYYCAADLTYTVPFDYWGQGTQVTVSS	high polyreactivity
QVQLVESGGGLVQAGGSLRLSCAASGIIFDSYAMGWYRQAPGKERELVAAITSDSGRTYYADSVKGRFTISRDNAKNTVYLHMNSLKPEDTAVYYCNADAYTYPTARYYWGQGTQVTVSS	low polyreactivity
QVQLVESGGGLVQAGGSLRLSCAASGRIFSAYAMGWYRQAPGKERELVAANSRSGGRTYYADSVKGRFTISRDNAKNTVYLQMNSLKPDDTAVYYCAVLWHGRRPLYKLRTGPEYDYWGQGTQVTVSS	high polyreactivity
QFQLVESGGGLVQAGGSLRLSCAASGRTFIVYAMGWYRQAPGKERELVAGITLGSTNYADSVKGRFTISRDNAKNTVYLQMNSLKPEDTAVYYCAARSSRRGPISEGDYWGQGTQVTVSS	high polyreactivity
QVQLVESGGGLVQAGGSLRLSCAASGRTFYYNDMGWYRQAPGKERELVAAISWSGVSTSYADSVKGRFTISRDNAKNTVYLQMNSLKPEDTAVYYCAADNDGWYFHITEYDYWGQGTQVTVSS	low polyreactivity
QVQLVESGGGLVQAGGSLRLSCAASGRTFWWYAMGWYRQEPGKERELVAAITWSGGSTYYADSVKGRFTISRDNAKNTVYLQMNSLKPEDTAVYYCAAYVHNKYDYWGQGTQVTVSS	low polyreactivity
QVQLVESGGGLVQAGGSLRLSCAASGSTFVPNAMGWYRQAPGKERELVAAISSVGSTNYADSVKGRFTISRDNAKNTVYLQLNSLKPEDTAVYYCAVRYPWRYFKYGYWGQGTQVTVSS	low polyreactivity
QVQLVESGGGLDQAGGSLRLSCAASGSTFVYNVMGWYRQAPGKERELVAAITSGVRTYYADSEKGRFTISRDNAKNTGYLQMNSLKPEDTAVYYCATGWRNAKYYYWGQGTQVNVSS	high polyreactivity
QVQLVESGGGLVQEGGSLRLSCAASGFTFPDYAMGWNRQAPGKERDLVAAITSSGGSTYYADSVKGRFTISRDNAKNTVYLQMNSLKPEDTAVYYCNGYISDDRYWSPAIEEDYWGQGTQVTVSS	high polyreactivity
QVQLVESGGGLVQAGGSLRLSCAACGFIFYYNAMGWYRQAHGKVRELVAAISSSAGSTYYADSVKGRFTISRDNAKNTVYLQMNSLKPEDTAVYDCAASRPPNTSNTGYGSWGQGTQVTVSS	low polyreactivity
QVQLVESGGGLVQAGGSLRLSCASSGRIFSWYTMGWNRQAPGKVSELVPVITSGGTTKYADSEKGRFTISRDNAKNTVYLQMNSLKPEDTAVYYCNVAGRDYAVRWGSFDYWGQGTQVTVSS	low polyreactivity
